Measured values from article PMC5566391.
Each block holds one molecule with its values, some of them ahead of it.

Columns and labels:
[1] = target: TRAIL-Trimer fusion protein (human) (UniProt P50591); assay: SDS-PAGE under non-reducing and reducing conditions; 2 µg of purified protein on 10% or 15% SDS-PAGE, Coomassie Blue; TRAIL-Trimer also by western blot
[2] = target: T1, TRAIL-Fc fusion protein (human), P50591; assay: as above; conditions: remark: other sources report otherwise
T1 chain: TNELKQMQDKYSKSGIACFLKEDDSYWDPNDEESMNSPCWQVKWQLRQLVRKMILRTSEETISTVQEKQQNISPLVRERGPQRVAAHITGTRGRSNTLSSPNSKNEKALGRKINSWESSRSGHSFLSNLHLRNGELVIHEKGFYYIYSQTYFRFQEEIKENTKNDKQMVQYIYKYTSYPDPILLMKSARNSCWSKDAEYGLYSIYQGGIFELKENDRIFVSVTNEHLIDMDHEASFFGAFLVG

stoichiometry N [1]: 3
Molecule: TRAIL-Trimer fusion protein (from UniProt P50591 39-281) (ligand)

stoichiometry N [2]: 2
B1: TRAIL-Fc fusion protein, P50591 39-281 (Fc fusion)
chain: T1 chain
